Experimental data as given in patent publication US20210324028A1 (Pfizer, published 2021).
Like-named read-outs stand apart in the source and are kept apart here.

T1: human IL-2Rβ (human, UniProt P14784 27-240, limits assumed)
T1 construct: also called hIL-2Rβ; IL-2 receptor beta
T1 sequence (looked up): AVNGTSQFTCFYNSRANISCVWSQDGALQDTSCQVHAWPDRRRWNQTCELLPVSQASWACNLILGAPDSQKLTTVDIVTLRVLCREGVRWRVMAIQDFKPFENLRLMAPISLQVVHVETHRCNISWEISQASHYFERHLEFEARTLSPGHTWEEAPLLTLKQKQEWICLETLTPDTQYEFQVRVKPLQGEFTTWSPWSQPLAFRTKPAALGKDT

T2: mouse PD-1 on doxycycline-induced 32D[pRF770+pRF791] cells (mouse, UniProt Q02242 25-288)
T2 sequence (looked up): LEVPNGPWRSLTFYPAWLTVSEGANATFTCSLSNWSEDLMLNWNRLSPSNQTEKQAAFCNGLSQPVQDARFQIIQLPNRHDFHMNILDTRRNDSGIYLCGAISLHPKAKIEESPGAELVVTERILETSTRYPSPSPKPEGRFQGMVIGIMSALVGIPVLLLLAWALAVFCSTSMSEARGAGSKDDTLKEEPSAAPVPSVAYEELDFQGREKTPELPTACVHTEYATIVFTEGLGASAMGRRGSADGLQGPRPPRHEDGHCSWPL

T3: IL-15 signaling receptor on 32D[pRF770+pRF791] cells (human CD122 plus mouse CD132) (human; mouse, UniProt P14784 27-551; P34902 23-369)
T3 sequence (looked up) 1: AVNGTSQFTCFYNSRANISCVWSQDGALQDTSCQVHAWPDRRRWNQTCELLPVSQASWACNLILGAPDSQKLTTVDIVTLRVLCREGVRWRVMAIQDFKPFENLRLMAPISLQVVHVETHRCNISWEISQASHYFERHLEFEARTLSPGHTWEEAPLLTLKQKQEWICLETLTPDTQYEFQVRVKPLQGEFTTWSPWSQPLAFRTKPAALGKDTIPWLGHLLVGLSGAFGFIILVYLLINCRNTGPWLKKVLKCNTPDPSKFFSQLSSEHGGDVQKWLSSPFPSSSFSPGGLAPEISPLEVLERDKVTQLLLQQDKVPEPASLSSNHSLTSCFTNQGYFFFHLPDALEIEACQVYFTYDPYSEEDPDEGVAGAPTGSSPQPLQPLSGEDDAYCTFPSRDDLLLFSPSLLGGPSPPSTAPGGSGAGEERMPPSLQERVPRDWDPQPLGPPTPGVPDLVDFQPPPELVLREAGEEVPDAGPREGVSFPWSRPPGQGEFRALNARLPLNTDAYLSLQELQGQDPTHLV
T3 sequence (looked up) 2: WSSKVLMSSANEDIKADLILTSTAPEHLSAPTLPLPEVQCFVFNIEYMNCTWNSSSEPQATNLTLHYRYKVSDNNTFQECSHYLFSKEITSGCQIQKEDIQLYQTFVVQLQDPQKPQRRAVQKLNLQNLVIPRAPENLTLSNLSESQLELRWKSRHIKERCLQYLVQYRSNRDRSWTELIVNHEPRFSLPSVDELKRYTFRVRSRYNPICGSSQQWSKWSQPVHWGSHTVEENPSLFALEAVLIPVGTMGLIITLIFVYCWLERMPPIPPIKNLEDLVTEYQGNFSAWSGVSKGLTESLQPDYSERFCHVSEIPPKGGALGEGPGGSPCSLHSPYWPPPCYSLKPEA


Tests used:
[1] = molecular target: T4, human IL-15Rα (human, UniProt Q13261 31-205, limits assumed); assay: SPR 37C, fusion captured by anti-human Fc
T4 construct: also called hIL-15Rα; IL-15 receptor alpha
T4 sequence (Q13261 31-205 limits assumed): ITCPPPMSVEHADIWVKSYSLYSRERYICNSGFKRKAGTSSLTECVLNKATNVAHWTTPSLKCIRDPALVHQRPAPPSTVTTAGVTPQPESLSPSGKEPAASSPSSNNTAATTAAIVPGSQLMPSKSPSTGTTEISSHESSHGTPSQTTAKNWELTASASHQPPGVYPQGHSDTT
Method in brief: (§1)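 Anti-PD-1–hIL-15 fusions captured at 10 μg/mL on an anti-human Fc surface, receptor injected at 37 °C in HEPES-buffered saline with 0.05% Tween-20 and 1 mg/mL BSA, pH 7.4; 5 min dissociation.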

[2] = molecular target: T1, human IL-2Rβ; assay: SPR, steady state, fusion captured
Experimental: Anti-human Fc sensor chips were prepared at 25° C. with a running buffer of 10 mM HEPES, 150 mM NaCl, 0.05% (v/v) Tween-20, pH 7.4. All surfaces of a Biacore CM4 sensor chip were activated with a 1:1 (v/v) mixture of 400 mM EDC and 100 mM NHS for 7 minutes, at a flow rate of 10 μL/min. An anti-human Fc reagent (Goat anti-human IgG Fc-γ specific, SouthernBiotech, Birmingham, Ala., Catalog #2014-01) was diluted to 50 μg/mL in 10 mM sodium acetate (pH 4.5) and injected on all flow cells for 7 minutes at 20 μL/min. All flow cells were blocked with 100 mM ethylenediamine in 200 mM Borate buffer pH 8.5 for 7 minutes at 10 μL/min.
All protein interaction experiments were performed at 37° C. using a running buffer of 10 mM HEPES, 150 mM NaCl, 0.05% (v/v) Tween-20, pH 7.4, 1 mg/mL BSA. Anti-PD-1-hIL-15 fusion proteins were captured at 10 μg/mL at a flow rate of 10 μL/min for 2 minutes. Different fusion proteins were captured in flow cells 2, 3 and 4. No protein was captured onto flow cell 1 which was used as a reference surface. […] After each analyte injection, dissociation was monitored for 5 minutes followed by regeneration of all flow cells with three 60-second injections of 75 mM phosphoric acid. […] For kinetic analysis, the double-referenced sensorgrams were fit globally to a simple 1:1 Langmuir with mass transport binding model using Biacore T200 Evaluation Software version 2.0. For steady-state affinity analysis, the double-referenced equilibrium binding responses were fit with a 1:1 Langmuir steady-state model using Biacore T200 Evaluation Software version 2.0.

[3] = molecular target: T2, mouse PD-1 on doxycycline-induced …; assay: cell-based or functional assay
[4] = molecular target: T3, IL-15 signaling receptor on …; assay: cell-based or functional assay
[5] = molecular target: T1, human IL-2Rβ; assay: SPR, fusion captured
Method in brief: as §1

[6] = molecular target: T2, mouse PD-1 on doxycycline-induced …; assay: cell-based or functional assay; remark: listed apart in the source
[7] = molecular target: T3, IL-15 signaling receptor on …; assay: cell-based or functional assay; remark: listed apart in the source

binding result [1]	Kd [2]	Fold change = EC50 (PD-1(low))/EC50 (PD-1+) [3]	pSTAT5 EC50 on PD-1+ 32D reporter cells [3]	pSTAT5 EC50 on PD-1(low) 32D reporter cells [4]	Kd [5]	Fold change = EC50 (PD-1(low))/EC50 (PD-1+) [6]	pSTAT5 EC50 on PD-1+ 32D reporter cells [6]	pSTAT5 EC50 on PD-1(low) 32D reporter cells [7]	Binder
no binding (tested: 3000 nM)	446 nM	163 fold	0.0229 nM	3.73 nM	–	–	–	–	xmPD-1-hIL15 NQ-3d (other, also called xmPD-1-IL15 NQ-3d; xmPD-IL15 NQ3d) heavy 1: HHHHHHHHGGGGSGSGGEVQLVESGGGLVKPGGSLELSCAASGFTFSSYWMSWVRQAPEKGLEWVAAISPSGGSTYYADSVKGRFTISRDNAKNTLFLQMTSLRSEDTAMYYCAKESWGAYYDLWGQGTTVTVSSASTKGPSVFPLAPCSRSTSESTAALGCLVKDYFPEPVTVSWNSGALTSGVHTFPAVLQSSGLYSLSSVVTVPSSNFGTQTYTCNVDHKPSNTKVDKTVERKCRVRCPRCPAPPVAGPSVFLFPPKPKDTLMISRTPEVTCVVVAVSHEDPEVQFNWYVDGVEVHNAKTKPREEQFNSTFRVVSVLTVVHQDWLNGKEYKCKVSNKGLPSSIEKTISKTKGQPREPQVYTLPPSREEMTKNQVSLTCLVKGFYPSDIAVEWESNGQPENNYKTTPPMLDSDGSFFLYSRLTVDKSRWQQGNVFSCSVMHEALHNHYTQKSLSLSPGK heavy 2: EVQLVESGGGLVKPGGSLELSCAASGFTFSSYWMSWVRQAPEKGLEWVAAISPSGGSTYYADSVKGRFTISRDNAKNTLFLQMTSLRSEDTAMYYCAKESWGAYYDLWGQGTTVTVSSASTKGPSVFPLAPCSRSTSESTAALGCLVKDYFPEPVTVSWNSGALTSGVHTFPAVLQSSGLYSLSSVVTVPSSNFGTQTYTCNVDHKPSNTKVDKTVERKCEVECPECPAPPVAGPSVFLFPPKPKDTLMISRTPEVTCVVVAVSHEDPEVQFNWYVDGVEVHNAKTKPREEQFNSTFRVVSVLTVVHQDWLNGKEYKCKVSNKGLPSSIEKTISKTKGQPREPQVYTLPPSREEMTKNQVSLTCEVKGFYPSDIAVEWESNGQPENNYKTTPPMLDSDGSFFLYSKLTVDKSRWQQGNVFSCSVMHEALHNHYTQKSLSLSPGSGGGGGTSATATPGANWVNVISDLKKIEDLIQSMHIDATLYTESDVHPSCKVTAMKCFLLQLQVISLQSGDASIHDTVENLIILANNSLSSNGNVTESGCKECEELEQKNIKEFLQSFVHIVQMFINT light: DIVMTQSPSSLSVSAGDKVTMSCRASQGISSWLAWYQQKPWQPPKLLIYKASTLESGVPDRFTGSGSGTDFTLTISSVQAEDLAVYYCQQSYSTPWTFGGGTKLEIKGTVAAPSVFIFPPSDEQLKSGTASVVCLLNNFYPREAKVQWKVDNALQSGNSQESVTEQDSKDSTYSLSSTLTLSKADYEKHKVYACEVTHQGLSSPVTKSFNRGEC
no binding (tested: 3000 nM)	–	–	–	–	> 1500 nM	2370 fold	0.31 nM	734 nM	xmPD-1-IL15 m2 (other, also called xmPD-1-hIL15 V49R/E46G/N1G/E64Q/D30N) heavy 1: EVQLVESGGGLVKPGGSLELSCAASGFTFSSYWMSWVRQAPEKGLEWVAAISPSGGSTYYADSVKGRFTISRDNAKNTLFLQMTSLRSEDTAMYYCAKESWGAYYDLWGQGTTVTVSSASTKGPSVFPLAPSSKSTSGGTAALGCLVKDYFPEPVTVSWNSGALTSGVHTFPAVLQSSGLYSLSSVVTVPSSSLGTQTYICNVNHKPSNTKVDKKVEPKSCDKTHTCPPCPAPEAAGAPSVFLFPPKPKDTLMISRTPEVTCVVVDVSHEDPEVKFNWYVDGVEVHNAKTKPREEQYNSTYRVVSVLTVLHQDWLNGKEYKCKVSNKALPAPIEKTISKAKGQPREPQVYTLPPCREEMTKNQVSLSCAVKGFYPSDIAVEWESNGQPENNYKTTPPVLDSDGSFFLVSKLTVDKSRWQQGNVFSCSVMHEALHNHYTQKSLSLSPGSGGGGSGGGGSGGGGGWVNVISDLKKIEDLIQSMHIDATLYTESNVHPSCKVTAMKCFLLGLQRISLESGDASIHDTVQNLIILANNSLSSNGNVTESGCKECEELEEKNIKEFLQSFVHIVQMFINTS heavy 2: EVQLVESGGGLVKPGGSLELSCAASGFTFSSYWMSWVRQAPEKGLEWVAAISPSGGSTYYADSVKGRFTISRDNAKNTLFLQMTSLRSEDTAMYYCAKESWGAYYDLWGQGTTVTVSSASTKGPSVFPLAPSSKSTSGGTAALGCLVKDYFPEPVTVSWNSGALTSGVHTFPAVLQSSGLYSLSSVVTVPSSSLGTQTYICNVNHKPSNTKVDKKVEPKSCDKTHTCPPCPAPEAAGAPSVFLFPPKPKDTLMISRTPEVTCVVVDVSHEDPEVKFNWYVDGVEVHNAKTKPREEQYNSTYRVVSVLTVLHQDWLNGKEYKCKVSNKALPAPIEKTISKAKGQPREPQVCTLPPSREEMTKNQVSLWCLVKGFYPSDIAVEWESNGQPENNYKTTPPVLDSDGSFFLYSKLTVDKSRWQQGNVFSCSVMHEALHNHYTQKSLSLSPGK light: DIVMTQSPSSLSVSAGDKVTMSCRASQGISSWLAWYQQKPWQPPKLLIYKASTLESGVPDRFTGSGSGTDFTLTISSVQAEDLAVYYCQQSYSTPWTFGGGTKLEIKGTVAAPSVFIFPPSDEQLKSGTASVVCLLNNFYPREAKVQWKVDNALQSGNSQESVTEQDSKDSTYSLSSTLTLSKADYEKHKVYACEVTHQGLSSPVTKSFNRGEC
